The chains are these.
B1: P9-10 (antibody, human IgG1, kappa, V domains shown)
VH: EVQLVESGGGLVQPGGSLRLSCAASGFTFDYYVIHWVRQAPGKGLEWVAAIDSYWGDTYYADSVKGRFTISADTSKNTAYLQMNSLRAEDTAVYYCARFYFYGFDYWGQGTLVTVSS
VL: DIQMTQSPSSLSASVGDRVTITCRASQSVSSAVAWYQQKPGKAPKLLIYSASSLYSGVPSRFSGSRSGTDFTLTISSLQPEDFATYYCQQYSWSLWTFGQGTKVEIKR
notes: bivalent monospecific native human full-length IgG1; also called ABS clone P9-10
B2: P9-15 (antibody, human IgG1, kappa, V domains shown)
VH: EVQLVESGGGLVQPGGSLRLSCAASGFTFRYYWIHWVRQAPGKGLEWVAAIFPSGGITTYADSVKGRFTISADTSKNTAYLQMNSLRAEDTAVYYCARGWPWGLDYWGQGTLVTVSS
VL: B1 VL with Y91R, S92D, W93R, L95P, W96Y
notes: bivalent monospecific native human full-length IgG1; also called ABS clone P9-15; Clone 15
B3: P9-22 (antibody, human IgG1, kappa, V domains shown)
VH: EVQLVESGGGLVQPGGSLRLSCAASGFTFSSYYIHWVRQAPGKGLEWVAAIYPFSGGTYYADSVKGRFTISADTSKNTAYLQMNSLRAEDTAVYYCARGYYVYVVMDYWGQGTLVTVSS
VL: B1 VL with S92K, W93S, L95P
notes: bivalent monospecific native human full-length IgG1; also called ABS clone P9-22; α-GAL9 (P9-22)
B4: P9-16 (antibody, human IgG1, kappa, V domains shown)
VH: B3 VH with S31Y, Y33W, A50D, F54S, G57Y, Y100W, V102A, Y103A, V104Y, V105G
VL: B1 VL with S92A, W93L, S94R, L95P, W96L
notes: bivalent monospecific native human full-length IgG1; also called ABS clone P9-16
B5: P9-32 (antibody, human IgG1, kappa, V domains shown)
VH: EVQLVESGGGLVQPGGSLRLSCAASGFTFSAYWIHWVRQAPGKGLEWVALIGPDGGYTYYADSVKGRFTISADTSKNTAYLQMNSLRAEDTAVYYCARQASRGLDYWGQGTLVTVSS
VL: B1 VL with Y91W, W93S, S94P, W96H
notes: bivalent monospecific native human full-length IgG1; also called ABS clone P9-32
B6: P9-18 (antibody, human IgG1, kappa, V domains shown)
VH: B1 VH with D30S, Y31W, D52Y, S53P, W55H, G56S, D57K, F99G, F101W, F104M
VL: B1 VL with S92T, W93D, S94A, L95P
notes: the murine IgG backbones were used only in vivo; also called ABS clone P9-18; Clone 18
B7: P9-28 (antibody, human IgG1, kappa, V domains shown)
VH: EVQLVESGGGLVQPGGSLRLSCAASGFTFGFYYIHWVRQAPGKGLEWVAFIDPHGGSTYYADSVKGRFTISADTSKNTAYLQMNSLRAEDTAVYYCARLSYPGVLDYWGQGTLVTVSS
VL: B1 VL with Y91G, S92Y, W93S, S94T, W96V
notes: bivalent monospecific native human full-length IgG1; also called ABS clone P9-28; α-GAL9 (P9-28)

Our source for the Kd values is patent US20220235135A1 (COUNCIL OF THE QUEENSLAND INSTITUTE OF MEDICAL RESEARCH, published 2022).

Changes are numbered by the printed parent chain.

Broadly, the Kd is the free concentration of one partner at which half of the binding sites on the other are occupied at equilibrium, for simple one-to-one binding. A high value points to lower affinity.

T1 sequence (O00182 whole entry): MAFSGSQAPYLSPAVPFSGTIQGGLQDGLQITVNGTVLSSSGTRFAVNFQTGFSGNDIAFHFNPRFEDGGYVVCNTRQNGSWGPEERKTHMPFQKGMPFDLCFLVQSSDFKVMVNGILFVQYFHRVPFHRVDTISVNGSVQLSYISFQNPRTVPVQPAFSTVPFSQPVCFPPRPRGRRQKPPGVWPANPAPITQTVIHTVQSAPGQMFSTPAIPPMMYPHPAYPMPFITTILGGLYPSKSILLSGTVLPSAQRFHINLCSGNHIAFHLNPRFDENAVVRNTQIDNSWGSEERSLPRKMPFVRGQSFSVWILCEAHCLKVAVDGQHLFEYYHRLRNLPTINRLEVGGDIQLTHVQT

This assay has as its target T1, Human GAL9 protein (Galectin-9) (human, UniProt O00182 1-355).
T1 construct: Bought His-tagged protein; also called hGAL9; Human Gal9 His-tag (Acro Biosystems Cat #LG9-H5244)
As to the kind of experiment: Octet BLI, IgG1 on biosensor, GAL9 analyte dilution series, global fit (monovalent affinity). A general note: In BLI a coated tip is dipped into the sample, and binding shifts an interference pattern.
Description: To measure qualitative binding affinity in the GAL9 binder discovery campaigns, IgG1 reformatted binders were immobilized to a biosensor on an Octet (Pall ForteBio) biolayer interferometer.
Soluble GAL9 antigen was then added to the system and binding measured. […] Octet kinetic analysis software was used to calculate the kinetic and equilibrium binding constants based on the rate of association and dissociation curves. Analysis was performed globally (global fit) where kinetic constants were derived simultaneously from all analyte concentration included in the experiment.
Regarding B1, the Kd is 5.77 nM.

B2 returned a Kd of 2.21 nM.

With B3, the Kd worked out at 4.85 nM.

In turn, B4 registered a Kd of 2.87 nM.

Regarding B5, the equilibrium dissociation constant (Kd) worked out at 1.08 nM.

B6 yielded a Kd of 6.24 nM.

In turn, B7 had a Kd of 3.36 nM.
